For the series, the system named is Escherichia coli TOP10. As to the kind of experiment: shrunken log2 fold change of peptide-encoding DNA abundance (4.5 h post-induction vs induction); higher = less antimicrobial activity (less host growth inhibition). The following applies: time post-induction: 4.5 h; library: site-saturation at positions 5, 18, 19, 20.
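Note: peptides expressed intracellularly from a pBAD plasmid library in pooled LB shake-flask culture, induced with 0.3% L-arabinose, DNA abundance read by NGS, three biological replicates, DESeq2 with apeglm shrinkage.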

For RRIRFRPPRLPRPRPRPGLIPRP, the “shrunken log2 fold change” value is -0.0301.

In the case of RRIRNRPPRLPRPRPRPRGGPRP, the “shrunken log2 fold change” value is 0.474.

Regarding RRIRCRPPRLPRPRPRPFSFPRP, the “shrunken log2 fold change” value is -0.513.

Consider RRIRRRPPRLPRPRPRPETVPRP, for which the “shrunken log2 fold change” value was -0.11.

On to RRIRGRPPRLPRPRPRPHAEPRP, for which the “shrunken log2 fold change” value was 2.68.

Consider RRIRWRPPRLPRPRPRPRSNPRP, for which the “shrunken log2 fold change” value is -0.133.

For the sequence RRIRRRPPRLPRPRPRPRCKPRP, the “shrunken log2 fold change” value turned out to be 0.358.

As for RRIRWRPPRLPRPRPRPNASPRP, the “shrunken log2 fold change” value is 0.267.

For the sequence RRIRFRPPRLPRPRPRPRYVPRP, the “shrunken log2 fold change” value was -0.105.

RRIRMRPPRLPRPRPRPSMRPRP: the “shrunken log2 fold change” value is 0.429.

Consider RRIRWRPPRLPRPRPRPLLWPRP, for which the “shrunken log2 fold change” value amounted to 0.571.

In the case of RRIRRRPPRLPRPRPRPSFVPRP, the “shrunken log2 fold change” value was -0.0435.

As for RRIRFRPPRLPRPRPRPYGNPRP, the “shrunken log2 fold change” value is -0.527.

For RRIRTRPPRLPRPRPRPLKKPRP, the “shrunken log2 fold change” value was -0.0468.

In the case of RRIRFRPPRLPRPRPRPACFPRP, the “shrunken log2 fold change” value is 0.0876.

RRIRVRPPRLPRPRPRPCLFPRP: the “shrunken log2 fold change” value was -0.592.

Regarding RRIRTRPPRLPRPRPRPSCWPRP, the “shrunken log2 fold change” value worked out at 0.00851.

On to RRIRMRPPRLPRPRPRPIKIPRP, for which the “shrunken log2 fold change” value is -0.0554.

Turning to RRIRLRPPRLPRPRPRPLTGPRP, the “shrunken log2 fold change” value is -0.0782.

For the sequence RRIRCRPPRLPRPRPRPMVWPRP, the “shrunken log2 fold change” value is 0.412.

RRIRMRPPRLPRPRPRPVPLPRP: the “shrunken log2 fold change” value was -0.0409.

For the sequence RRIRDRPPRLPRPRPRPSMNPRP, the “shrunken log2 fold change” value is -0.152.

Regarding RRIRNRPPRLPRPRPRPLGSPRP, the “shrunken log2 fold change” value was -0.0602.

For RRIRQRPPRLPRPRPRPKWYPRP, the “shrunken log2 fold change” value is -0.118.

For the sequence RRIRARPPRLPRPRPRPPNGPRP, the “shrunken log2 fold change” value is -0.00234.

In the case of RRIRNRPPRLPRPRPRPSFVPRP, the “shrunken log2 fold change” value was -0.266.

For RRIRWRPPRLPRPRPRPFRKPRP, the “shrunken log2 fold change” value is -0.351.

Turning to RRIRLRPPRLPRPRPRPGCNPRP, the “shrunken log2 fold change” value was -0.162.

RRIRRRPPRLPRPRPRPDAWPRP: the “shrunken log2 fold change” value turned out to be 0.325.

For the sequence RRIRKRPPRLPRPRPRPLRAPRP, the “shrunken log2 fold change” value is 1.23.

With RRIRNRPPRLPRPRPRPCWPPRP, the “shrunken log2 fold change” value is 0.274.

Turning to RRIRFRPPRLPRPRPRPCLYPRP, the “shrunken log2 fold change” value was -0.881.

On to RRIRVRPPRLPRPRPRPVIQPRP, for which the “shrunken log2 fold change” value is -0.336.

For RRIRQRPPRLPRPRPRPHFNPRP, the “shrunken log2 fold change” value is -0.324.

Turning to RRIRPRPPRLPRPRPRPSITPRP, the “shrunken log2 fold change” value was -0.401.

On to RRIRGRPPRLPRPRPRPRIVPRP, for which the “shrunken log2 fold change” value was found to be 0.824.

Regarding RRIRDRPPRLPRPRPRPTQWPRP, the “shrunken log2 fold change” value came to 0.0594.

Take RRIRNRPPRLPRPRPRPNCIPRP: the “shrunken log2 fold change” value is -0.679.

RRIRVRPPRLPRPRPRPIMFPRP: the “shrunken log2 fold change” value is -0.0691.

With RRIRRRPPRLPRPRPRPPRNPRP, the “shrunken log2 fold change” value was found to be 1.28.

Take RRIRIRPPRLPRPRPRPKCVPRP: the “shrunken log2 fold change” value is -0.328.

Regarding RRIRQRPPRLPRPRPRPGLLPRP, the “shrunken log2 fold change” value was -0.0475.

With RRIRYRPPRLPRPRPRPGGIPRP, the “shrunken log2 fold change” value was -0.0836.

As for RRIRNRPPRLPRPRPRPYRNPRP, the “shrunken log2 fold change” value was -0.0239.

For the sequence RRIRERPPRLPRPRPRPDHHPRP, the “shrunken log2 fold change” value is -0.478.

With RRIRLRPPRLPRPRPRPVMNPRP, the “shrunken log2 fold change” value is -0.18.

On to RRIRVRPPRLPRPRPRPDSIPRP, for which the “shrunken log2 fold change” value is -0.149.

Regarding RRIRHRPPRLPRPRPRPGTDPRP, the “shrunken log2 fold change” value is -0.0998.

As for RRIRIRPPRLPRPRPRPSERPRP, the “shrunken log2 fold change” value is -0.073.

RRIRFRPPRLPRPRPRPMDDPRP: the “shrunken log2 fold change” value was -0.182.

As to RRIRMRPPRLPRPRPRPQHDPRP, the “shrunken log2 fold change” value is -0.202.

Consider RRIRRRPPRLPRPRPRPWCRPRP, for which the “shrunken log2 fold change” value stood at 1.02.

On to RRIRTRPPRLPRPRPRPEGLPRP, for which the “shrunken log2 fold change” value worked out at 0.0624.

As for RRIRDRPPRLPRPRPRPLFTPRP, the “shrunken log2 fold change” value came out at 0.0222.

Regarding RRIRDRPPRLPRPRPRPFLMPRP, the “shrunken log2 fold change” value was -0.0685.

For the sequence RRIRCRPPRLPRPRPRPHMGPRP, the “shrunken log2 fold change” value was -0.29.

In the case of RRIRGRPPRLPRPRPRPVDMPRP, the “shrunken log2 fold change” value was determined as 0.255.

For RRIRMRPPRLPRPRPRPNMSPRP, the “shrunken log2 fold change” value was 0.0106.

Turning to RRIRWRPPRLPRPRPRPMTYPRP, the “shrunken log2 fold change” value was -0.289.

RRIRWRPPRLPRPRPRPAIYPRP: the “shrunken log2 fold change” value is -0.259.

Turning to RRIRGRPPRLPRPRPRPSVHPRP, the “shrunken log2 fold change” value is -0.00458.

RRIRYRPPRLPRPRPRPPVPPRP: the “shrunken log2 fold change” value worked out at 0.486.

Regarding RRIRARPPRLPRPRPRPKFHPRP, the “shrunken log2 fold change” value is 0.133.

On to RRIRARPPRLPRPRPRPGKCPRP, for which the “shrunken log2 fold change” value is 0.0981.

For RRIRPRPPRLPRPRPRPVASPRP, the “shrunken log2 fold change” value is 0.00755.

For the sequence RRIRKRPPRLPRPRPRPSYCPRP, the “shrunken log2 fold change” value is -0.251.

On to RRIRLRPPRLPRPRPRPNTPPRP, for which the “shrunken log2 fold change” value was -0.187.

With RRIRIRPPRLPRPRPRPSFHPRP, the “shrunken log2 fold change” value was -1.13.

As for RRIRFRPPRLPRPRPRPSMPPRP, the “shrunken log2 fold change” value was -0.331.

Regarding RRIRERPPRLPRPRPRPTDVPRP, the “shrunken log2 fold change” value was -0.0755.

Turning to RRIRQRPPRLPRPRPRPGEAPRP, the “shrunken log2 fold change” value turned out to be 0.271.

Regarding RRIRMRPPRLPRPRPRPVKHPRP, the “shrunken log2 fold change” value is 0.0894.

On to RRIRHRPPRLPRPRPRPKLLPRP, for which the “shrunken log2 fold change” value is -0.0097.

Take RRIRCRPPRLPRPRPRPRSFPRP: the “shrunken log2 fold change” value is -0.342.

Regarding RRIRRRPPRLPRPRPRPYYRPRP, the “shrunken log2 fold change” value is -0.186.

For the sequence RRIRHRPPRLPRPRPRPKFLPRP, the “shrunken log2 fold change” value was 0.0327.

Take RRIRFRPPRLPRPRPRPPIYPRP: the “shrunken log2 fold change” value is -0.416.

Turning to RRIRHRPPRLPRPRPRPDQWPRP, the “shrunken log2 fold change” value was -0.108.

For the sequence RRIRRRPPRLPRPRPRPTGQPRP, the “shrunken log2 fold change” value stood at 0.675.

In the case of RRIRERPPRLPRPRPRPQIEPRP, the “shrunken log2 fold change” value was -0.208.

Regarding RRIRTRPPRLPRPRPRPQRKPRP, the “shrunken log2 fold change” value was 0.138.

Consider RRIRCRPPRLPRPRPRPAWEPRP, for which the “shrunken log2 fold change” value stood at 0.0219.

Turning to RRIRQRPPRLPRPRPRPLTKPRP, the “shrunken log2 fold change” value is 0.184.

RRIRNRPPRLPRPRPRPVVGPRP: the “shrunken log2 fold change” value stood at 0.392.

Regarding RRIRRRPPRLPRPRPRPSCFPRP, the “shrunken log2 fold change” value was -0.0896.

Turning to RRIRYRPPRLPRPRPRPIQFPRP, the “shrunken log2 fold change” value is -0.00822.

For RRIRTRPPRLPRPRPRPHYWPRP, the “shrunken log2 fold change” value is -0.25.

On to RRIRTRPPRLPRPRPRPFMMPRP, for which the “shrunken log2 fold change” value was -0.203.

As for RRIRTRPPRLPRPRPRPKPQPRP, the “shrunken log2 fold change” value was determined as 0.203.

As to RRIRYRPPRLPRPRPRPPFAPRP, the “shrunken log2 fold change” value worked out at 0.0915.

As for RRIRRRPPRLPRPRPRPRRAPRP, the “shrunken log2 fold change” value came out at 0.655.

Take RRIRWRPPRLPRPRPRPMQGPRP: the “shrunken log2 fold change” value was found to be 0.00185.

As to RRIRCRPPRLPRPRPRPYNWPRP, the “shrunken log2 fold change” value was -0.917.

As to RRIRNRPPRLPRPRPRPPNPPRP, the “shrunken log2 fold change” value was 0.411.

For the sequence RRIRDRPPRLPRPRPRPTYEPRP, the “shrunken log2 fold change” value is 0.127.

Consider RRIRLRPPRLPRPRPRPVKDPRP, for which the “shrunken log2 fold change” value was -0.211.

As for RRIRYRPPRLPRPRPRPKGHPRP, the “shrunken log2 fold change” value is -0.145.

In the case of RRIRARPPRLPRPRPRPTTLPRP, the “shrunken log2 fold change” value amounted to 0.067.

RRIRGRPPRLPRPRPRPSCIPRP: the “shrunken log2 fold change” value was found to be 0.423.

For RRIRWRPPRLPRPRPRPDIEPRP, the “shrunken log2 fold change” value is -0.0323.

Consider RRIRNRPPRLPRPRPRPMYQPRP, for which the “shrunken log2 fold change” value was -0.201.

Consider RRIRQRPPRLPRPRPRPYKKPRP, for which the “shrunken log2 fold change” value is -0.0619.

In the case of RRIRYRPPRLPRPRPRPTTQPRP, the “shrunken log2 fold change” value was -0.597.

Take RRIRYRPPRLPRPRPRPHPDPRP: the “shrunken log2 fold change” value is -0.299.

RRIRERPPRLPRPRPRPPERPRP: the “shrunken log2 fold change” value came to 0.366.

Consider RRIRTRPPRLPRPRPRPRMKPRP, for which the “shrunken log2 fold change” value turned out to be 0.0156.

Consider RRIRCRPPRLPRPRPRPGYRPRP, for which the “shrunken log2 fold change” value was -0.682.

For RRIRARPPRLPRPRPRPEKAPRP, the “shrunken log2 fold change” value was 0.046.

For RRIRTRPPRLPRPRPRPRGHPRP, the “shrunken log2 fold change” value worked out at 0.182.

As to RRIRGRPPRLPRPRPRPCSYPRP, the “shrunken log2 fold change” value was 0.089.

Consider RRIRVRPPRLPRPRPRPAYHPRP, for which the “shrunken log2 fold change” value is -0.316.

As to RRIRNRPPRLPRPRPRPFKTPRP, the “shrunken log2 fold change” value is -0.0614.

Regarding RRIRDRPPRLPRPRPRPRYSPRP, the “shrunken log2 fold change” value was -0.662.

For RRIRCRPPRLPRPRPRPQFTPRP, the “shrunken log2 fold change” value was -0.427.

For the sequence RRIRTRPPRLPRPRPRPSPCPRP, the “shrunken log2 fold change” value is -0.0588.

Turning to RRIRPRPPRLPRPRPRPFNIPRP, the “shrunken log2 fold change” value is -0.293.

As to RRIRLRPPRLPRPRPRPFGEPRP, the “shrunken log2 fold change” value is 0.084.

On to RRIRARPPRLPRPRPRPCIRPRP, for which the “shrunken log2 fold change” value was -0.365.

Take RRIRDRPPRLPRPRPRPVNNPRP: the “shrunken log2 fold change” value worked out at 0.0566.

Consider RRIRPRPPRLPRPRPRPNCLPRP, for which the “shrunken log2 fold change” value is -0.0395.

Consider RRIRNRPPRLPRPRPRPITNPRP, for which the “shrunken log2 fold change” value is -0.279.

In the case of RRIRRRPPRLPRPRPRPTECPRP, the “shrunken log2 fold change” value came to 0.0801.

As to RRIRSRPPRLPRPRPRPHMGPRP, the “shrunken log2 fold change” value is -0.0366.

For the sequence RRIRLRPPRLPRPRPRPETEPRP, the “shrunken log2 fold change” value came out at 0.0833.

For the sequence RRIRERPPRLPRPRPRPDNIPRP, the “shrunken log2 fold change” value was -0.745.
